From patent publication US20080096222A1 (BRIGHAM AND WOMEN S HOSPITAL, published 2008)

Experiments:
GST alone = biological target: T1, GST alone (UniProt P08515 1-218 = GST); test: GST pulldown from lysates of myc-haspin-transfected cells
T1 construct: Control protein
Experimental: (§1) For immunoprecipitation, cells are suspended in 50 mM Tris/0.5 M NaCl/1% Triton X-100/1% DOC/0.1% SDS/2 mM EDTA, pH 7.4 (buffer L) with 1 μg/ml pepstatin/1 μg/ml leupeptin/1 μg/ml antipain/1 μg/ml chymostatin/1 mM phenylmethylsulphyl fluoride/1 mM NaF/0.1 μM okadaic acid and lysed by shearing 15 times through a 21 gauge needle. Insoluble material is removed by centrifugation for 15 min at 13,000 rpm and the lysates precleared with protein G-Sepharose and concentrations equalized based on Bradford assay (Bio-Rad). Lysates are incubated with antibodies for 1.5 h at 4° C. before addition of protein G-Sepharose for a further 1.5 h. Beads are washed 4 times with buffer L and thrice with Hepes-buffered saline, pH 7.4 (HBS). For GST pulldown assays, cells are lysed in 20 mM Tris/1% Triton X-100/1 mM EDTA/1 mM DTT, pH 7.4 (buffer T) containing 0.3 M NaCl and protease and phosphatase inhibitors as above, clarified, and precleared with glutathione-Sepharose. […]
(§2) To examine the interaction of haspin with H3, we utilized the H3-GST fusion proteins in “pulldown” assays from lysates of myc-haspin-transfected cells. In the conditions of the assay, myc-haspin bound to H3-GST, whereas the binding of myc-haspin to GST alone, H2B-GST and H4-GST was not detected.

[1] = biological target: T2, H2B-GST (residues 1-35 of human H2B fused to GST) (human, UniProt P62807 2-36); test: as above
T2 construct: range 1-35; not shown: glutathione S-transferase (GST) encoded by vector pETGEX-CT
T2 sequence (P62807 2-36): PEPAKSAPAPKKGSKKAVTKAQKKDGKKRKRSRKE
Experimental: as §1, §2

T1 sequence (P08515 whole entry): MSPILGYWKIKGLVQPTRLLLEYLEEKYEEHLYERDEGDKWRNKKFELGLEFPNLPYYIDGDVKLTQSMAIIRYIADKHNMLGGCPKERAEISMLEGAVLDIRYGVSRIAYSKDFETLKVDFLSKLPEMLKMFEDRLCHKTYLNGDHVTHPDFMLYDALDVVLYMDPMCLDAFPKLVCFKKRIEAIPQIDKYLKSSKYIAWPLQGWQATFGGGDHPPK

binding result (GST alone): no binding | binding result [1]: no binding
B1: myc-tagged human haspin (enzyme)
chain: AASLPGPGSRLFRTYGAADGRRQRRPGREAAQWFPPQDRRRFFNSSGSSDASIGDPSQSDDPDDPDDPDFPGSPVRRRRRCPGGRVPKDRPSLTVTPKRWKLRARPSLTVTPRRLGLRARPPQKCSTPCGPLRLPPFPSRDSGRLSPDLSVCGQPRDGDELGISASLFSSLASPCPGSPTPRDSVISIGTSACLVAASAVPSDLHLPEVSLDRASLPCSQEEATGGAKDTRMVHQTRASLRSVLFGLMNSGTPEDSEFRADGKNMRESCCKRKLVVGNGPEGPGLSSTGKRRATGQDSCQERGLQEAVRREHQEASVPKGRIVPRGTDRLERTRSSRKSKHQEATETSLLHSHRFKKGQKLGKDSFPTQDLTPLQNACFWTKTRASFSFHKKKIVTDVSEVCSIYTTATSLSGSLLSECSNRPVMNRTSGAPSSWHSSSMYLLSPLNTLSISNKKASDAEKVYGECSQKGPVPFSHCLPTEKLQRCEKIGEGVFGEVFQTIADHTPVAIKIIAIEGPDLVNGSHQKTFEEILPEIIISKELSLLSGEVCNRTEGFIGLNSVHCVQGSYPPLLLKAWDHYNSTKGSANDRPDFFKDDQLFIVLEFEFGGIDLEQMRTKLSSLATAKSILHQLTASLAVAEASLRFEHRDLHWGNVLLKKTSLKKLHYTLNGKSSTIPSCGLQVSIIDYTLSRLERDGIVVFCDVSMDEDLFTGDGDYQFDIYRLMKKENNNRWGEYHPYSNVLWLHYLTDKMLKQMTFKTKCNTPAMKQIKRKIQEFHRTMLNFSSATDLLCQHSLFK
notes: Expressed in transfected HEK293 or HeLa cells and used from cell lysates; also called myc-haspin; full-length haspin; not shown: myc tag encoded by the pcDNA3-derived plasmid pCANmyc1
